The text below walks through data of patent publication US20230203461A1, “BETA-ETHERASES FOR LIGNIN DEPOLYMERISATION” (The University of York, priority 2020, published 2023).

One data set has as its system tyrosinase. The settings on record: literature statement; cited from earlier work.
The next data set deals with β-etherase. The data set can be described thus: Phenol oxidase assay (substrate specificity) with β-etherase. It counts as biochemical, P. putredinis NO1. The settings on record: 1 mM substrate, 50 mM Tris pH 8.5, room temperature. How it is done: Specificity was investigated by incubating 1 mM of each substrate of interest with the enzyme in 100 µL Tris pH 8.5 buffer at room temperature. Activity was determined by monitoring the change in Ultraviolet-Visible absorbance spectra (220 - 750 nm) of aliquots using a NanoDrop 8000 Microvolume UV-Vis spectrophotometer (Thermo Scientific). Scans were performed at regular intervals over 2 h.

A short description of data set [1]: Saccharification after β-etherase pretreatment, sugarcane bagasse (HPAEC). It counts as biochemical. The settings on record: 16 h β-etherase pretreatment, then commercial cellulases. As for the experimental part: (§1) For saccharification reactions, biomass pretreated with β-etherase was incubated with 1.2 µg/mL enzyme cocktail (4:1 Celluclast: novo 188 (Novozymes)) in 50 mM sodium acetate at pH 4.5 and incubated overnight at 37-40° C. with shaking. This was performed alongside a control reaction with buffer only. Solids were removed by centrifugation, and residual protein was precipitated with 80% ethanol. The supernatant, containing mono- and oligosaccharides, was dried with a centrifugal evaporator before samples were resuspended in ultra-pure water and filtered through a 0.2 µm polytetrafluoroethylene (PTFE) filter. Five replicates from each sample were investigated, and carbohydrate composition was analyzed by high-performance anion-exchange chromatography (HPAEC).
High-performance anion-exchange chromatography was used to analyze monosaccharide release after saccharification. Briefly, 5 µL of samples or standards were injected on a CarboPac PA20 3 × 150 mm analytical column via a CarboPac PA20 3×0 mm guard column using Chromeleon 6.8 Chromatography Data Systems software (Dionex). Sugars were separated at a flow rate of 0.4-0.5 mL min^-1 at a temperature of 25° C. as follows: after equilibration of the column with 100% H2O, samples were separated in a linear gradient of 100% H2O to 99%-1% of H2O-0.2 M NaOH for 5 min, then constant for 10 min, followed by a linear gradient to 47.5%-22.5%-30% of H2O-0.2 M NaOH-0.5 M NaOAc/0.1 M NaOH in 7 min and then kept constant for 15 min. After washing the column with 0.2 M NaOH for 8 min it was re-equilibrated with 100% H2O for 10 min before the injection of the next sample. Carbohydrates were detected by ICS-3000 PAD system with an electrochemical gold electrode, identified by comparison with retention times of external standards (arabinose, fucose, galactose, glucose, glucuronic acid, mannose, rhamnose, and xylose) and quantified through the integration of these known standards.

Data set [2] in a line: Release of tricin and lignin units from wheat straw (HPLC). It counts as biochemical. The settings on record: 16 h, pH 8.5, 30° C. How it is done: Wheat straw was ground to <1 mm using a cyclone mill (Retsch) and washed several times with 50 mM Tris pH 8 to remove residual surface sugars. […] Reactions were incubated overnight at 30° C. with shaking. Control reactions were performed using wheat straw incubated with boiled β-etherase or with buffer only. Tricin was extracted based upon Karambelkar.^70 Briefly, 1 mL of ethyl acetate was added to 100 µL of the reaction supernatant. This was homogenized before being centrifuged for 5 min at 13,000 rpm. The ethyl acetate layer was transferred into new tubes and evaporated using a centrifugal evaporator at 55° C. before being resuspended in 100 µL 50% H2O, 50% acetonitrile. This was analyzed with a Waters 2996 photodiode array detector Separations Module HPLC system, column used was C18-5 µM preparative column (4.6 × 250 mm, Waters, X-Bridge, Made in Ireland). The mobile phase was 0.1% acetic acid in water (A), and methanol (B) and a linear gradient was used; 95% A (5 min), 70% A (25 min), 0% A (30 min), 95% A (5 min), the flow rate was 1.0 mL/min. After identification through comparisons with authentic standards, based on retention time and UV spectrum, peaks were manually collected and the mass confirmed with mass spectroscopy.

Data set [3] can be described thus: 2D HSQC NMR of enzyme lignins from treated wheat. The settings on record: HSQC volume-integrals, S + G + H = 100% basis; control nearly 12%. How it is done: Enzyme lignins, representing essentially all of the lignin in the sample, were prepared following ball-milling of the cell wall isolate as previously described.(75-77, 78)
2D NMR of enzyme lignins (EL) in 4:1 v/v DMSO-d6:pyridine-d5 were acquired on a Bruker Biospin (Billerica, MA) Avance 700 MHz spectrometer equipped with a 5-mm QCI ^1H/^31P/^13 C/^15 N QCI cryoprobe with inverse geometry (proton coils closest to the sample), as described previously.(76,77) Volume-integration of contours in HSQC plots used TopSpin 4.07 (Mac version) software, and no correction factors were used. The data represent volume-integrals only, and data are presented on an S + G + H = 100% basis (FIG. 17); pCA, and tricin T units are always terminal and are, therefore, likely overestimated.(77) Data assignments here were made by comparison with published data from other samples from our lab, including in the various tricin-related papers.(71-74, 79, 80)

Data set [4] in a line: Saccharification after β-etherase pretreatment, rice straw (HPAEC). It counts as biochemical. The settings on record: 16 h β-etherase pretreatment, then commercial cellulases. How it is done:
as §1
(§2) High-performance anion-exchange chromatography was used to analyze monosaccharide release after saccharification. Briefly, 5 µL of samples or standards were injected on a CarboPac PA20 3 × 150 mm analytical column via a CarboPac PA20 3×0 mm guard column using Chromeleon 6.8 Chromatography Data Systems software (Dionex). […] Carbohydrates were detected by ICS-3000 PAD system with an electrochemical gold electrode, identified by comparison with retention times of external standards (arabinose, fucose, galactose, glucose, glucuronic acid, mannose, rhamnose, and xylose) and quantified through the integration of these known standards.

A short description of data set [5]: Saccharification after β-etherase pretreatment, wheat straw (HPAEC). The class given is biochemical. The settings on record: 16 h β-etherase pretreatment, then commercial cellulases. How it is done: as §1, §2
Data set [6] can be described thus: Release of products from rice straw (HPLC). The class given is biochemical. The settings on record: 16 h, pH 8.5, 30° C.
Data set [7] is described as follows: Release of products from sugarcane bagasse (HPLC). The settings on record: 16 h, pH 8.5, 30° C. The class given is biochemical.
Data set [8] is described as follows: Fluorescence assay for β-etherase (4MU release from GGβ4MU). The class given is biochemical. How it is done:
Enzyme activity was measured in 1 mL reaction containing 10 µL 4MU/GGβ4MU (synthetic fluorescent substrate 10 mM) and appropriate concentration of pure protein in 50 mM Tris-HCI, 100 mM NaCl, pH 8.5, 5 mM CuSO4. The reaction was incubated at 30° C. for 1 h. Formation of 4-methylumbelliferone (4MU) was monitored using an RF-1500 fluorometric analyzer. After 0 h and 1 h of incubation 100 µL of the reaction mixture was taken and added to 50 µL of 100 mM glycine-NaOH buffer (pH 10.0). One unit of the enzyme was defined as the amount that released 1 nmol of 4 MU/h from the substrate. Five replicate were taken for each sample, and control reactions of boiled enzyme and wheat straw treated with buffer only were also performed.
The effect of pH and temperature on enzyme activity was investigated by varying the pH of the reaction mixtures using 50 mM Tris-HCI buffer from pH 7.0 to 9.5, 50 mM glycine-NaOH buffer at pH range 9.0 to 10.5 and 50 mM Na2HPO4-NaOH buffer at pH range 10.5 to 12. The optimum temperature of enzyme activity was determined at various temperatures ranging from 20° C. to 70° C. Assays were performed as described in the previous section.

Setting [9] is: purification step: Culture filrate.
Setting [10] is: purification step: Q (anion-exchange).
Where [11] appears, read: purification step: S.E (size-exclusion).

With `O=C(O)/C=C/c1ccc(O)cc1` [p-coumaric acid], the “type of tyrosinase inhibition” value with tyrosinase is “mixed-type inhibition effect”.

`COc1cc(-c2cc(=O)c3c(O)cc(O)cc3o2)cc(OC)c1O` [Tricin, 5,7-dihydroxy-2-(4-hydroxy-3,5-dimethoxyphenyl)-4H-chromen-4-one]: the “type of tyrosinase inhibition” value in the data set on tyrosinase is given as “binds non-competitively”.

Regarding `N[C@@H](Cc1ccc(O)cc1)C(=O)O` [L-tyrosine], the “activity of the β-etherase against the substrate” value (“activity of the β-etherase” for short) with β-etherase is reported as “did not display activity”.

Take `COc1cc(C(=O)O)ccc1O` [Vanillic acid]: in the data set with tyrosinase, the tyrosinase inhibition result is on record as “known to be tyrosinase inhibitors”. Also, the “activity of the β-etherase” value with β-etherase is given as “showed activity”.

For the molecule `N[C@@H](Cc1ccc(O)c(O)c1)C(=O)O` [L-Dopa, 3,4-dihydroxy-L-phenylalanine], the “activity of the β-etherase” value in the data set on β-etherase was “did not display activity”.

On to `O=C(O)c1ccc(O)cc1` [4-Hydroxybenzoic acid], for which the tyrosinase inhibition entry with tyrosinase is given as “known to be tyrosinase inhibitors”. In the data set on β-etherase, the “activity of the β-etherase” value is recorded as “showed activity”.

As to `O=c1c(O)c(-c2ccc(O)c(O)c2)oc2cc(O)cc(O)c12` [Quercetin], in the data set with tyrosinase, the tyrosinase inhibition result is reported as “known to be tyrosinase inhibitors”. Further, the “activity of the β-etherase” value with β-etherase was “showed activity”.

B1: β-etherase: copper-containing extracellular β-etherase of Parascedosporium putredinis NO1 (c2092), independent of NAD+ and glutathione, expressed recombinantly in E. coli (protein, listed as Parascedosporium putredinis)
chain: MPSAKRLLGLLLAATAAVGVAAQEPALTEDDFSIPEIEGGDALAQLAQLAADSSQETALRMAKRGLNSGCSPSQIKVRREWRTLTSAQRKQYIASVKCLQTKPSFFDPNIIPAAKSLFDDFVGVHVFQTGSIHLTATFLTWHRYFVYTYETKLREECGYTGPLPYWEWGLDVNNPNASPVFDGSDTSLSGNGAFFAHEGIQMVQPINGNILKLPPGNGGGCVTKGPFKDMKVHFGTIILPVYGQPILSGVENPIADNERCLKRDLNAGIAKRFTSFLNSTSVILKNNNIEMFQAHLQGDDRYVLNQLGVHGGGHYTIGGDPGGDPFISPGDPAFYLHHAQIDRIYWIWQMLDFKNRQGVHGTATLQNNPPSANVTVEDTIDLSPLAPPVKIKDLMNTVGGSPLCYIYL
In the case of B1, in data set [1], the “increase in arabinose after saccharification vs untreated control” value stood at 23 fold, the “increase in glucose after saccharification vs untreated control” value came out at 2 fold and the “increase in xylose after saccharification vs untreated control” value came out at 5 fold. Moreover, in [2], the “p-coumaric acid, vanillin and p-hydroxybenzaldehyde in reaction supernatant of wheat straw” value is “not enriched”; the “tricin in reaction supernatant of wheat straw vs buffer alone” value is listed as “significantly higher concentration of tricin”. The “relative tricin ether level in the lignin after treatment” value in data set [3] was “about 8.5%”. Besides, the improvement in saccharification result in [4] was “no improvement in saccharification”. Further, the “increase in glucose release after saccharification” value in [5] worked out at 1.2 fold. The “product release from rice straw” value in [6] is reported as “little difference in product release”. In data set [7], the “p-coumaric acid release from sugarcane bagasse” value is “significantly enriched” and the “tricin released from sugarcane bagasse compared to wheat straw” value is listed as “smaller amount of tricin was released”. In addition, the “temperature of maximum activity” value in data set [8] (GGβ4MU assay, 20° C. to 70° C. tested) was 60 °C. The “pH of maximum activity” value in data set [8] (GGβ4MU assay, pH 7.0 to 12 tested) was determined as 10. Further, in [8] (setting [9]), the “Activity (mU) (nmol/mg/hr)” value was 7500 mU and the “Specific (U/mg)” value was determined as 7.32 U/mg. Besides, in [8] (setting [10]), the “Activity (mU) (nmol/mg/hr)” value was 2600 mU and the “Specific (U/mg)” value is recorded as 88 U/mg. Also, in [8] (setting [11]), the “Activity (mU) (nmol/mg/hr)” value amounted to 1950 mU and the “Specific (U/mg)” value is 139 U/mg. Moreover, the “β-etherase activity (fluorescence released after incubation with GGβ4MU)” value in [8] (recombinant purified protein from E. coli) is reported as “confirmed”.
